Data as given in publication PMC5574551.

Experiments:
[1] = molecular target: taxol-stabilized microtubules (porcine brain tubulin) (porcine) (UniProt P02550); assay: single molecule observation (TIRF microscopy); as a2, 1 nM Alexa 647-labeled dynein with 2 nM 1BΔCC1 mutant
[2] = molecular target: dynactin complex containing the DCTN1B (1B) isoform (human (cDNA from HEK293 cells) | human (endogenous in HEK293)) (UniProt Q13561); assay: pull-down; TALON Dynabeads pull-down of purified proteins; dynein and dynactin mixed in 10 mM Pipes-NaOH pH 7.0, 75 mM NaCl, 45 mM imidazole, 0.01% Tween 20, 10 min at 25°C; bound and unbound fractions on SDS-PAGE, dynein heavy chain band quantified by densitometry
[3] = molecular target: taxol-stabilized microtubules (porcine brain tubulin) (porcine) (UniProt P02550); assay: single molecule observation (TIRF microscopy); as a2, 1 nM Alexa 647-labeled dynein with 2 nM 1B isoform and 20 nM BICD2 (DDB 1B)
[4] = molecular target: taxol-stabilized microtubules (porcine brain tubulin) (porcine) (UniProt P02550); assay: single molecule observation (TIRF microscopy); 1 nM Alexa 647-labeled dynein alone on taxol-stabilized microtubules held on glass by anti-β tubulin antibody; SM buffer (12 mM Pipes-KOH pH 6.8, 25 mM KAce, 1 mM ATP, 2 mM DTT), 25°C; total residence time in a window of 10 s and 10 μm of microtubule
[5] = molecular target: taxol-stabilized microtubules (porcine brain tubulin) (porcine) (UniProt P02550); assay: single molecule observation (TIRF microscopy); as a2, 1 nM Alexa 647-labeled dynein with 2 nM 1A isoform and 20 nM BICD2 (DDB 1A)
[6] = molecular target: taxol-stabilized microtubules (porcine brain tubulin) (porcine) (UniProt P02550); assay: single molecule observation (TIRF microscopy); as a2, 1 nM Alexa 647-labeled dynein with 2 nM p135 isoform
[7] = molecular target: taxol-stabilized microtubules (porcine brain tubulin) (porcine) (UniProt P02550); assay: single molecule observation (TIRF microscopy); as a2, 1 nM Alexa 647-labeled dynein with 20 nM BICD2 (full length), no dynactin
[8] = molecular target: taxol-stabilized microtubules (porcine brain tubulin) (porcine) (UniProt P02550); assay: single molecule observation (TIRF microscopy); as a2, 1 nM Alexa 647-labeled dynein with 2 nM 1A isoform, no BICD2
[9] = molecular target: taxol-stabilized microtubules (porcine brain tubulin) (porcine) (UniProt P02550); assay: single molecule observation (TIRF microscopy); as a2, 1 nM Alexa 647-labeled dynein with 2 nM 1B isoform, no BICD2
[10] = molecular target: taxol-stabilized microtubules (porcine brain tubulin) (porcine) (UniProt P02550); assay: single molecule observation (TIRF microscopy); 1 nM GFP-labeled dynactin isoform, mutant or fragment alone on taxol-stabilized microtubules held on glass; SM buffer, 1 mM ATP, 25°C; total residence time in a window of 10 s and 10 μm of microtubule

total residence time on microtubules (with 1BΔCC1 mutant) [1]	Kd [2]	stoichiometry N [2]	total residence time on microtubules (with 1B isoform and BICD2) [3]	total residence time on microtubules [4]	total residence time on microtubules (with 1A isoform and BICD2) [5]	total residence time on microtubules (with p135 isoform) [6]	total residence time on microtubules (with BICD2) [7]	fraction not dissociated from microtubules during the observation of 30 s (with 1A isoform) [8]	total residence time on microtubules (with 1A isoform) [8]	duration on microtubules, τ (with 1B isoform) [9]	total residence time on microtubules (with 1B isoform) [9]	total residence time on microtubules [10]	fraction not dissociated from microtubules during the observation of 30 s [10]	Substance
54 s	2.3 nM	1	19.2 s	64.9 s	49.1 s	23.8 s	51.8 s	79%	53.2 s	1.2 s	4.7 s			cytoplasmic dynein (recombinant dynein complex), Q14204 1-4646
												50 s		dynactin complex containing the 1BΔCC1 mutant of DCTN1 (from UniProt P61163 1-376)
												60.1 s	72%	dynactin complex containing the DCTN1A (1A) isoform (from UniProt Q14203-1 1-1278; Q13561 1-401; P61163 1-376)
